# Measurements from patent US20190375821A1.
# Biological target: VEGF165 (UniProt P15692)
# Assay: ELISA, plate coated with VEGF, anti-human Fc-HRP detection
# VEGF165, sequence (P15692 other isoform, or with tags, fused parts or gaps limits assumed): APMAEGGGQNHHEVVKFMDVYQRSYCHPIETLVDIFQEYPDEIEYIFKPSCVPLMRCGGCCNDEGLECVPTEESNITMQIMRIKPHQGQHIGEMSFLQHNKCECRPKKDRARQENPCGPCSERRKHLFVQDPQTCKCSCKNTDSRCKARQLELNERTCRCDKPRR
substance,measurement,value
VEGF-trap (aflibercept) (Fc fusion),Kd,0.5 pM
